Sequences and labels used below:
B1: CEACAM1-Ig fusion protein (extracellular portion of CEACAM1 fused to the Fc portion of human IgG1) (Fc fusion)
chain: QLTTESMPFNVAEGKEVLLLVHNLPQQLFGYSWYKGERVDGNRQIVGYAIGTQQATPGPANSGRETIYPNASLLIQNVTQNDTGFYTLQVIKSDLVNEEATGQFHVYP
notes: also called CCM1-Ig; soluble CEACAM1-Ig; not shown: Fc portion of human IgG1
B2: CCM1-RQ43,44SL (CEACAM1 with S and L at positions 43 and 44 instead of R and Q) (receptor)
chain: B1 chain with R43S, Q44L
notes: also called CEACAM1-RQ43,44SL
B3: CCM1-Q44L (CEACAM1 with 44Q changed to 44L) (receptor)
chain: B1 chain with Q44L
notes: also called CEACAM1-Q44L
B4: CCM6-L44Q (CEACAM6 with 44L changed to 44Q) (receptor)
chain: B1 chain with Q1K, T4I, M7T, V21A, Q27N, L28R, F29I, R43S, A49V, N61Y
notes: also called CEACAM6-L44Q
B5: CCM1-R43A (CEACAM1 with 43R changed to 43A) (receptor)
chain: B1 chain with R43A
notes: The expression level was lower than that of the other transfectants; also called CEACAM1-R43A
B6: CCM6-SL43,44RQ (CEACAM6 with R and Q at positions 43 and 44 instead of S and L) (receptor)
chain: B1 chain with Q1K, T4I, M7T, V21A, Q27N, L28R, F29I, A49V, N61Y
notes: also called CEACAM6-SL43,44RQ
B7: CCM6-S43R (CEACAM6 with 43S changed to 43R) (receptor)
chain: B1 chain with Q1K, T4I, M7T, V21A, Q27N, L28R, F29I, Q44L, A49V, N61Y
notes: also called CEACAM6-S43R

Holding throughout (test): flow cytometry on stably transfected 721.221 cells
A general note: A flow cytometer gives signals particle by particle.

Assay [1] deals with T1, CEACAM6 protein on 721.221 cells (human, UniProt P40199 35-142).
T1 construct: also called CD66c
T1 sequence: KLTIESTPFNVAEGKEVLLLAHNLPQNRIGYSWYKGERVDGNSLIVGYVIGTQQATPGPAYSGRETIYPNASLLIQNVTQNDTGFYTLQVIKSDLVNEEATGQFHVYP

Assay [2] concerns the target B1.
In assay [3] the target is T2, CD99-Ig fusion protein (control) (human, UniProt P14209 23-122, limits assumed).
T2 construct: extracellular domain; Control fusion protein produced in COS-7 cells; not shown: human IgG1 (Fc portion)
T2 sequence (looked up): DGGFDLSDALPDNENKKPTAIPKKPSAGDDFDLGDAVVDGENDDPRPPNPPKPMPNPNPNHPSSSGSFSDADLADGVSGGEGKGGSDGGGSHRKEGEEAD

Where a chain is given by its changes, count along the chain named. In names and notes the source's numbering stands.

Turning to B1, the binding result in assay [1] was “no binding”.

For the molecule B2, the binding result in assay [2] and in assay [3] was “no binding” each time.

B3: in assay [2], the binding result is “no binding”.

B4: in assay [2], the binding result is “no binding”.

In the case of B5, the binding result in assay [2] was “no binding”.

Consider B6, for which the binding result in assay [3] was “no binding”.

Regarding B7, the binding result in assay [2] is “no binding”.
